In paper PMC12098678 one finds Kd, residual brain level of IL-12Fc WT 6 h after CED in hFcRn Tg32 mice given the FcRn inhibitor MST-HN Fc (100 ug i.v.) beforehand and IL-12 level in the ipsilateral brain hemisphere 6 h after CED of 1 ug into the striatum of hFcRn Tg32 mice, compared to the IAQ and AAA variants and WT IL-12Fc data, which are given here for six substances.

Bounds are passed on as bounds.

Assay [1] has as its target human recombinant biotinylated FcRn (neonatal Fc receptor) (human) (UniProt P55899). In words: SPR; ProteOn XPR36; biotinylated human FcRn immobilised on an NLC chip, IL-12Fc variants or control antibodies as analytes (0-6075 nM); histidine buffer (20 mM histidine, 150 mM NaCl, 0.05% Tween 20) pH 6.0; KD from binding equilibrium analysis; values of Figure 2B (for WT and NHQ those of the channel labelled 100-115 RU in the sheet of Figure S2C). Background: SPR reads the build-up and loss of mass on a sensor chip optically.

The target is the same in assay [2].
For assay [3] the target is unchanged. In words: SPR; as a1, channel L5, FcRn coating density labelled 30-35 RU; WT 365-4.5 nM, NHQ 3645-45 nM; pH 6.0; equilibrium analysis.
For assay [4] the target is unchanged. In words: SPR; as a1, channel L2, FcRn coating density labelled 250-260 RU; WT 365-4.5 nM, NHQ 3645-45 nM; pH 6.0; equilibrium analysis.
Assay [5] has the same target. Kind of assay: SPR; as a1, channel L1, FcRn coating density labelled 550-600 RU; WT 365-4.5 nM, NHQ 3645-45 nM; pH 6.0; equilibrium analysis.
Assay [6] shares this target. In words: SPR; as a1, channel L4, FcRn coating density labelled 75-80 RU; WT 365-4.5 nM, NHQ 3645-45 nM; pH 6.0; equilibrium analysis.

In the case of Control IgG1 (antibody), the Kd in assay [1] was determined as 218 nM.
Consider “human IL-12Fc WT (IHH), single-chain IL-12 fused to human IgG4 Fc (Fc fusion)”, for which the residual brain level of IL-12Fc WT 6 h after CED in hFcRn Tg32 mice given the FcRn inhibitor MST-HN Fc (100 ug i.v.) beforehand in assay [2] is above 50%.
Consider Control IgG4 (antibody), for which, in assay [1], the dissociation constant (Kd) amounted to 343 nM.
Consider IL-12Fc WT S228P (Fc fusion), for which the equilibrium dissociation constant (Kd) in assay [1] worked out at 182 nM.
With “human IL-12Fc NHQ (I253N H435Q), FcRn-silenced IL-12Fc (Fc fusion)”, the IL-12 level in the ipsilateral brain hemisphere 6 h after CED of 1 ug into the striatum of hFcRn Tg32 mice, compared to the IAQ and AAA variants and WT IL-12Fc in assay [2] was above 30%.
Turning to IL-12Fc WT (IHH) (Fc fusion), the Kd amounted to 445 nM in assay [3]; 60.1 nM in assay [4]; 216 nM in assay [5]; 186 nM in assay [6]; 101 nM in assay [1].

By Kd is commonly meant the constant that tells how readily two partners part at equilibrium.
